For data set [1], the target named is glucose-6-phosphate dehydrogenase (G6PD) from Gluconacetobacter diazotrophicus PAL5 (Gluconacetobacter diazotrophicus PAL5). The data set is described as follows: SEC; Sephacryl 200 (16/60) gel filtration column, 100 mM Tris-HCl pH 7.35, 0.01 M MgCl2, 0.3 mL/min, AKTA pure FPLC; calibrated with Bio-Rad gel filtration standard; oligomeric state of the native protein.

Substrate in data set [2]: NC(=O)c1ccc[n+]([C@@H]2O[C@H](COP(=O)(O)OP(=O)(O)OC[C@H]3O[C@@H](n4cnc5c(N)ncnc54)[C@H](OP(=O)(O)O)[C@@H]3O)[C@@H](O)[C@H]2O)c1
The data set is described as follows: purified protein. Format: biochemical, Gluconacetobacter diazotrophicus. Particulars: G6P fixed at 630 µM (~10-fold Km), NADP+ 0 to 250 µM.

Substrate in data set [3]: O=P(O)(O)OC[C@H]1OC(O)[C@H](O)[C@@H](O)[C@@H]1O
The data set is described as follows: purified protein. Particulars: NADP+ fixed at 72 µM (~10-fold Km), G6P 0 to 2 mM. Format: biochemical, Gluconacetobacter diazotrophicus.

In data set [1], “glucose-6-phosphate dehydrogenase (G6PD) from Gluconacetobacter diazotrophicus PAL5 (enzyme)” showed a stoichiometry N of 4.

B1: G6PD from GDI (Gluconacetobacter diazotrophicus PA1 5) (protein)
chain: MDGIVASASSEIQGAGLQPRRAPPCTFVVFGGGGDLTKRLLVPAIYNLACAGLLDDGFSIVAVDWAELSDDILRAQFHEALQDFVAKRGTAAAVLRDDIWRWLNTRVSYLRGSFEDPATFERLGARIGSGNAVFYLAVAARFFGTIVDRLGESHLTDEVGETYRRVIVEKPFGHDLNSARELNIRLLRTLRERQIYRIDHYLGKETVQNIMALRFSNGFFEPLWNRQNIDHVQITAAETVGVEKRGRFYEGTGALRDMVPNHLMQLLAMTAMEAPVSFDADAVRDEKSKVLKAIHCTGPEDVVRGQYGGGVLGGTPVRGYRDEPDVAPASRTETYVAMKLAIDNWRWAGVPFYLRTGKRLAVRKTEIAIHFRRAPYALFRDTPVDRLTPNIMTIHIQPTEGVTLQFGAKIPGPTVRLGGVRMKFDYSEWFSEGPSTGYETLIYDCLTGDATLFQRADNIEAGWRAVQPALDWGERTEAAPLCPYAAGSAGPIEADALLARDGRQWQDLAE
notes: full-length, N-terminal His6 tag removed by TEV protease, E. coli BL21(DE3)pLysS, 510 residues (ORF 1530 bp), 56,483 Da monomer, homotetramer 220 kDa
For the molecule B1, the results for the Km in the data set “purified protein [2]” and in the data set “purified protein [3]” were 7.2 µM and 63 µM, respectively.

These data come from PMC6862599, “Molecular Cloning and Exploration of the Biochemical and Functional Analysis of Recombinant Glucose-6-Phosphate Dehydrogenase from Gluconoacetobacter diazotrophicus PAL5” (International Journal of Molecular Sciences, 2019).
